In patent US20220409742A1, “NUCLEIC ACID NANOPARTICLES, PHARMACEUTICAL COMPOSITION COMPRISING SAME, DRUG COMPRISING DOXORUBICIN AND PREPARATION METHOD THEREFOR” (BAI YAO ZHI DA (BEIJING) NANOBIO TECHNOLOGY CO., LTD., priority 2018, published 2022):
Positions count from the first letter of the chain named. “And” between values parts separate entries of the source, which are not always exact repeats. Equal entries are not always repeated. {Biotin} = biotin attached at the strand end; {Cy3} = Cy3 fluorescent dye

Key:
HepG2 cells = test: Cytotoxicity of RNA nanoparticles in HepG2 cells (CellTiter-Glo); format: cell-based; settings: 200 nM, 72 hours, CTG
Experimental: (1) A RPMI1640+10% FBS+1% PS medium was used to culture HepG2 cells under 37 DEG C. and 5% CO2.
(2) The HepG2 cells were digested by a trypsin, 100 μL of 5000 cells per well was inoculated in a 96-well plate, and cultured overnight under 37 DEG C. and 5% CO2.
(3) Cell supernatant was removed on the second day, a sample to be tested was diluted with the culture medium, 200 nM of RNAh, RNAh-Biotine, RNAh-Dox and Dox were respectively added, 100 μL each was added to the plated cells, and each sample was repeated for 4 times.
(4) After being cultured for 72 hours, 100 μL of a CTG reagent was added to each well, shaking was performed for 2 min, and standing was performed at a room temperature for 10 minutes, and a whole process was performed in the dark.
(5) Finally Soft Max ProS software was used for reading.

[1] = Doxorubicin loading rate, physical loading; format: physicochemical; settings: mass ratio doxorubicin:RNA nanoparticles 1:1, 55 DEG C., 3 h
Experimental: 1) enabling a mass ratio of the doxorubicin and the RNA nanoparticles to be 1:1;
2) weighing 0.1 mg of a doxorubicin original drug and dissolving in 50 μL of DMSO, and then adding 300 μL of the PBS and mixing uniformly;
3) enabling RNA particles to be dissolved in 200 μL of the […] treated water, and adding into the doxorubicin-PBS mixed solution, uniformly mixing, and adjusting a pH to be about 7.5;
4) putting the whole solution in a water bath kettle at 55 DEG C., and reacting for 3 h;
5) after the reaction, directly adding 10 times of anhydrous ethanol in volume, and precipitating at 4 DEG C. for 4 h; and
6) washing for 4 times with 10 times of the anhydrous ethanol, and transferring to 1.5 mL of a EP tube. Subsequently, measuring a loading rate, herein the measuring method is the same as above, and a measuring result is that a doxorubicin loading rate is 15.5.

[2] = Serum stability of RNA nanoparticles, RPMI 1640 with 10% serum, non-denaturing gel; format: in vitro ADME; settings: for RNA quantification result, RNA nanoparticle: RPMI 1640 with 10% serum, 37 DEG C.
Experimental: (1) 350 μl of the PBS was absorbed into a RNA nanoparticle sample, and adequately mixed uniformly.
(2) 2 μM of the RNA nanoparticles were incubated in the RPMI 1640 medium containing 10% serum.
(3) After being incubated at 37 DEG C. for 10 min, 1 h, 12 h, and 36 h, samples were taken respectively.
(4) After NanoDrop used for quantification, 200 ng of the RNA nanoparticlesnanoparticle were taken, the same volume of Tris-Glycine SDS sample buffer solution (2×) was added, and adequately mixed uniformly.
(5) A piece of Novex™ 8% Tris-Glycine Mini gel was taken, the samples were loaded in order, a program was set in 200 V, 30 min, and electrophoresis was started.
(6) After the electrophoresis was over, G250 staining was performed, it was placed on a horizontal shaker for 30 min to 1 h, and pictures were taken for imaging.

[3] = Doxorubicin loading rate, chemical loading (paraformaldehyde covalent linkage); format: physicochemical; settings: doxorubicin molecules per nucleic acid nanoparticle carrier
Experimental: (1) Accurately weighing the doxorubicin (5.0 mg, 8.6 μmol, 40 eq.) and dissolving in the DEPC treated water (1.8 mL) and the PBS buffer solution (2.1 mL), adding 4% paraformaldehyde aqueous solution (0.4 mL) under cooling of an ice-water bath and uniformly mixing, enabling the mixed solution to be totally uniformly mixed with the RNA nanoparticles (215 nmol), and reacting for 72 hours at 4 DEG C. under a dark condition.
(2) Taking 10 μL of reaction solution and diluting for 10 times, using 50 μM of the doxorubicin aqueous solution and 310 ng/μL of the RNA nanoparticles as controls, and performing HPLC analysis according to equal volume injection. According to a peak area ratio of each component, it may be adjusted that reaction conversion is basically completed.
(3) Extracting the reaction solution by the chloroform (10 mL×3), and then adding 10 times of the anhydrous ethanol in volume, after uniformly mixing, keeping at 4 DEG C. in the dark and enabling a product to be adequately precipitated (4 hours). Centrifuging, transferring supernatant, and washing the solid product again by the ethanol, evaporating a solvent under reduced pressure and lower temperature, to obtain a loading product which is a dark red solid.
(5) Loading rate calculation:
1. preparing a known concentration of doxorubicin-PBS standard solution: 2 μM, 4 μM, 6 μM, 8 μM, and 10 μM, 100 μL each;
2. enabling the doxorubicin-loaded product to be dissolved in 100 μL of the PBS;
3. putting the standard solution and the doxorubicin-loaded product into a PCR plate, heating at 85 DEG C. for 5 min, and then cooling to the room temperature;
4. measuring an absorbance of the doxorubicin at 492 nm by using a microplate reader, drawing a standard curve (as shown in FIG. 11), and calculating the molar concentration of the doxorubicin in the loaded product;
5. measuring an absorbance of RNA at 260 nm by using a spectrophotometer, to obtain the mass concentration of the doxorubicin-loaded product contained in each sample; and
6. according to the doxorubicin molar concentration and the mass concentration of the doxorubicin-loaded product obtained by measuring, calculating a loading rate.
According to the chemical loading method (unless otherwise specified, the method is the same as that of Embodiment 5) of Embodiment 5, the above DNA nanoparticles in Embodiment 1, the RNA nanoparticles formed by the self-assembly of the R-1, R-2, R-3, R-4, R-5, R-6 and R-7 in Embodiment 2, and the DNA nanoparticles formed by the self-assembly of the D-2, D-6 and D-7 in Embodiment 4 are respectively used as doxorubicin loading carriers, doxorubicin loading rates measured are respectively as follows:
According to the chemical loading method (unless otherwise specified, the method is the same as that of Embodiment 5) of Embodiment 5, the RNA nanoparticles formed by the self-assembly of the previous R-15, R-16, R-17, R-18, R-19, R-20 and R-21 in Embodiment 11, and the DNA nanoparticles formed by the self-assembly of the D-8, D-9, D-10, D-11, D-12, D-13 and D-14 in Embodiment 12 are respectively used as doxorubicin loading carriers, doxorubicin loading rates measured are respectively as follows: […]

[4] = Particle size measurement (DLS hydrodynamic size); format: physicochemical
Description: 1. Preparing a potential sample (conventional-sequence DNA self-assembly product D-7) and putting into a sample pool, opening a sample pool cover of an instrument, and placing the instrument;
2. opening software, and clicking a menu, so a manual measurement parameter setting dialog box appears;
3. setting a software detection parameter; and then
4. clicking Ok to complete the settings, while a measurement dialog box appears, clicking Start to start, a DLS measurement value result of a hydrodynamic size of the self-assembly product D-7 is as follows:
1. Preparing a potential sample (7 groups of extension fragment deformation+core short-sequence RNA) and putting into a sample pool, opening a sample pool cover of an instrument, and placing the instrument;
4. clicking Ok to complete the settings, while a measurement dialog box appears, clicking Start to start, a DLS measurement value result of a hydrodynamic size of the 7 groups of extension fragment deformation+core short-sequence RNA is as follows:
(1) Preparing a potential sample (7 groups of extension fragment deformation+core short-sequence DNA) and putting into a sample pool, opening a sample pool cover of an instrument, and placing the instrument;
(2) opening software, and clicking a menu, so a manual measurement parameter setting dialog box appears;
(3) setting a software detection parameter; and then
(4) clicking Ok to complete the settings, while a measurement dialog box appears, clicking Start to start, a DLS measurement value result of a hydrodynamic size of the 7 groups of extension fragment deformation+core short-sequence DNA is as follows: […]

In the case of `COc1cccc2c1C(=O)c1c(O)c3c(c(O)c1C2=O)C[C@@](O)(C(=O)CO)C[C@@H]3O[C@H]1C[C@H](N)[C@H](O)[C@H](C)O1` [doxorubicin], the “HepG2 cell proliferation (%) Mean ± SEM (n = 4)” value (HepG2 cells) is reported as 39.56%.

B1: RNA nanoparticles: RNA nanoparticles self-assembled in Embodiment 1 from strands SEQ ID NO:52-54, C/U 2′F, 5′Biotin, 5′CY3 (nucleic acid)
chain 1: CGCGCGCCCACCAGCGUUCCGGGCGCCGC
chain 2: GCGGCGCCCGGUUCGCCGCCAGGCGGC
chain 3: GCCGCCAGGCGGCCAUAGCGGUGGGCGCGCG
modifications: chain 1: 2'-fluoro at CU, RNA at AG, 5' {Biotin}, backbone not given here; chain 2: 2'-fluoro at CU, RNA at AG, 5' {Biotin}, backbone not given here; chain 3: 2'-fluoro at CU, RNA at AG, 5' {Cy3}, backbone not given here; three-strand self-assembled RNA nanoparticle
For B1, the doxorubicin loading rate [1] was 15.5, the “serum stability (non-denaturing gel bands)” value ([2]; 1640 medium of 10% FBS, 10 min, 1 h, 12 h, 36 h at 37 DEG C.) was “relatively stable” and the “RNA quantification result, RNA nanoparticle” value (“RNA quantification result” for short) ([2]; incubation 10 min) was 193.5 ng/µL. For the same molecule, the “RNA quantification result” value ([2]; incubation 1 h) was 176.0 ng/µL, the “RNA quantification result” value ([2]; incubation 12 h) was 175.5 ng/µL and the “RNA quantification result” value ([2]; incubation 36 h) was 214.8 ng/µL. For the same molecule, the “RNA quantification result” value ([2]; incubation time 0) was 178.8 ng/µL.

B2: D-7: conventional-sequence DNA nanoparticle, SEQ ID NO:117-119, without target head, thio modification (nucleic acid)
chain 1: CGCGCGCCCACGAGCGTTGCGGGCGCCGC
chain 2: GCGGCGCCCGCTTCGGCGGCAGGCGGC
chain 3: GCCGCCAGCCGCCCATAGCCGTGGGCGCGCG
modifications: DNA, backbone and methylation of C not given here; three-strand DNA nanoparticle, phosphorothioate modification
In the case of B2, the doxorubicin loading rate [3] is reported as 10, the “Particle size Z-Ave, single detection” value ([4]; detection times 1-3, listed as 1) is reported as 10.76 nm·days and 13.9 nm·days and 10.36 nm·days and the “Particle size Z-Ave, Experiment result” value ([4]; summary of 3 detections) is reported as 12.33 d.nm(±1.57 d.nm).

B3: R-15: extension fragment deformation+core short-sequence RNA nanoparticle, SEQ ID NO:120-122, 3′ biotin on a-strand, 2′F (nucleic acid)
chain 1: GCGGCGAGCGGCGAGGAGCGUUGGGGCCGGAGGCCGG
chain 2: CCGGCCUCCGGCCCCUUCGGGGCCAGCCGCC
chain 3: GGCGGCAGGCCCCCAUAGCCCUCGCCGCUCGCCGC
modifications: chain 1: 3' {Biotin}, sugars by position and backbone not given here; chain 2: chemistry not given here; chain 3: chemistry not given here; three-strand RNA nanoparticle, 2'-F modified
Work on B3 yielded a Mean particle size [4] of 6.808 nm.

B4: R-16: extension fragment deformation+core short-sequence RNA nanoparticle, SEQ ID NO:123-125, 3′ biotin on a-strand, 2′F (nucleic acid)
chain 1: B3 chain 1 with G16C, G23C
chain 2: B3 chain 2 with C15G, G20C, G21C
chain 3: B3 chain 3 with C11G, C12G, C20G
modifications: chain 1: 3' {Biotin}, sugars by position and backbone not given here; chain 2: chemistry not given here; chain 3: chemistry not given here; three-strand RNA nanoparticle, 2'-F modified
With B4 the Mean particle size [4] was 6.978 nm.

B5: R-17: extension fragment deformation+core short-sequence RNA nanoparticle, SEQ ID NO:126-128, 3′ biotin on a-strand, 2′F (nucleic acid)
chain 1: B3 chain 1
chain 2: B3 chain 2 with G20C, G21C
chain 3: B3 chain 3 with C11G, C12G
modifications: chain 1: 3' {Biotin}, sugars by position and backbone not given here; chain 2: chemistry not given here; chain 3: chemistry not given here; three-strand RNA nanoparticle, 2'-F modified
Work on B5 yielded a Mean particle size [4] of 7.592 nm.

B6: R-18: extension fragment deformation+core short-sequence RNA nanoparticle, SEQ ID NO:129-131, 3′ biotin on a-strand, 2′F (nucleic acid)
chain 1: B3 chain 1 with G16C, G23C
chain 2: B3 chain 2 with C15G, G21C
chain 3: B3 chain 3 with C11G, C20G
modifications: chain 1: 3' {Biotin}, sugars by position and backbone not given here; chain 2: chemistry not given here; chain 3: chemistry not given here; three-strand RNA nanoparticle, 2'-F modified
In the case of B6, the Mean particle size [4] is reported as 7.520 nm.

B7: R-19: extension fragment deformation+core short-sequence RNA nanoparticle, SEQ ID NO:132-134, 3′ biotin on a-strand, 2′F (nucleic acid)
chain 1: B3 chain 1 with G16C, G23C
chain 2: B3 chain 2 with C15G, G21C, G22C
chain 3: B3 chain 3 with C10G, C11G, C20G
modifications: chain 1: 3' {Biotin}, sugars by position and backbone not given here; chain 2: chemistry not given here; chain 3: chemistry not given here; three-strand RNA nanoparticle, 2'-F modified
For B7, the Mean particle size [4] was 6.936 nm.
